Test results: article doi:10.1101/089938v2

What was measured:
[1] = substrate: C[C@@H](N)C(=O)O; test: racemization assay, HPLC of derivatized L- and D-Ala; format: biochemical, Streptomyces coelicolor; settings: D- to L-Ala direction
[2] = substrate: C[C@H](N)C(=O)O; test: as above; format: biochemical, Streptomyces coelicolor; settings: L- to D-Ala direction

B1: AlrSco (alanine racemase from Streptomyces coelicolor A3(2), SCO4745) (Streptomyces coelicolor A3(2)) (protein)
chain: MSETTARRDADAVLRARAEIDLAALRANVRALRERAPGAALMAVVKADAYGHGAIPCARAAVAAGATWLGTATPQEALALRAAEPGLPDDVRIMCWLWTPGGPWREAVEARLDVSVSAMWAMEEVTGAARAAGVPARVQLKADTGLGRGGCQPGADWERLVGAALRAEEEGLLRVTGLWSHFACADEPGHPSIAAQLTRFREMTAYAEQRGLRPEVRHIANSPATLTLPDAHFDLVRPGIAMYGVSPSPEIGTPADFGLRPVMTLAASLALVKQVPGGHGVSYGHHYTTPGETTLGLVPLGYADGIPRHASSSGPVLVDGKWRTVAGRIAMDQFVVDLGGDRPEPGAEAVLFGPGDRGEPTAEDWAQAAGTIAYEIVTRIGSRVPRVYVNE
In the case of B1, the Km [1] is reported as 8.9 mM and the Km [2] is reported as 6.3 mM.
